The series deals with Escherichia coli TOP10. Kind of series: shrunken log2 fold change of peptide-encoding DNA abundance (4.5 h post-induction vs induction); higher = less antimicrobial activity (less host growth inhibition). The settings on record: time post-induction: 4.5 h; library: site-saturation at positions 5, 18, 19, 20.
With RRIRYRPPRLPRPRPRPIMGPRP, the “shrunken log2 fold change” value was -0.0134.
RRIRVRPPRLPRPRPRPSIIPRP: the “shrunken log2 fold change” value is -0.384.
To RRIRARPPRLPRPRPRPSVRPRP belongs -0.0488.
Take RRIRKRPPRLPRPRPRPVSDPRP: the “shrunken log2 fold change” value was 0.156.
As for RRIRMRPPRLPRPRPRPLCPPRP, the “shrunken log2 fold change” value is -0.0953.
Take RRIRTRPPRLPRPRPRPGYLPRP: the “shrunken log2 fold change” value was found to be 0.0359.
With RRIRARPPRLPRPRPRPKEDPRP the figure was 0.133; with RRIRERPPRLPRPRPRPLYIPRP, -0.668; with RRIRERPPRLPRPRPRPTQLPRP, 0.251.
For RRIRERPPRLPRPRPRPGKHPRP, the “shrunken log2 fold change” value is -0.324.
To RRIRMRPPRLPRPRPRPGYRPRP belongs 0.158; to RRIRWRPPRLPRPRPRPPFVPRP, 0.171; to RRIRERPPRLPRPRPRPTGKPRP, -0.0509.
With RRIRQRPPRLPRPRPRPFWFPRP the figure was 0.0862; with RRIRYRPPRLPRPRPRPDYKPRP, -0.136.
To RRIRIRPPRLPRPRPRPEPCPRP belongs -0.057.
Turning to RRIRRRPPRLPRPRPRPMEHPRP, the “shrunken log2 fold change” value was 0.131.
Take RRIRFRPPRLPRPRPRPTHWPRP: the “shrunken log2 fold change” value worked out at 0.44.
For RRIRFRPPRLPRPRPRPPFLPRP, the “shrunken log2 fold change” value was -0.0645.
As to RRIRPRPPRLPRPRPRPYVAPRP, the “shrunken log2 fold change” value is -0.465.
With RRIRWRPPRLPRPRPRPASAPRP the figure was 0.298.
With RRIRHRPPRLPRPRPRPVDFPRP the figure was 0.0522; with RRIRLRPPRLPRPRPRPQTFPRP, -0.118.
With RRIRSRPPRLPRPRPRPALLPRP the figure was 0.42; with RRIRVRPPRLPRPRPRPTDWPRP, 0.255.
For RRIRHRPPRLPRPRPRPPPFPRP, the “shrunken log2 fold change” value stood at 0.0505.
With RRIRDRPPRLPRPRPRPQTNPRP the figure was 0.118.
Take RRIRYRPPRLPRPRPRPIIDPRP: the “shrunken log2 fold change” value was -1.
To RRIRGRPPRLPRPRPRPDVIPRP belongs 0.68.
To RRIRVRPPRLPRPRPRPMDWPRP belongs -0.138; to RRIRRRPPRLPRPRPRPGFMPRP, 0.252.
To RRIRVRPPRLPRPRPRPMILPRP belongs -0.0833.
In the case of RRIRDRPPRLPRPRPRPQGIPRP, the “shrunken log2 fold change” value was -0.0548.
With RRIRSRPPRLPRPRPRPDIYPRP, the “shrunken log2 fold change” value is -0.194.
With RRIRYRPPRLPRPRPRPQPDPRP the figure was -0.0504; with RRIRMRPPRLPRPRPRPPGMPRP, 1.08.
RRIRRRPPRLPRPRPRPPWVPRP: the “shrunken log2 fold change” value came out at 0.535.
With RRIRPRPPRLPRPRPRPTNYPRP the figure was -0.542.
With RRIRWRPPRLPRPRPRPEPKPRP the figure was 0.393; with RRIRIRPPRLPRPRPRPKPQPRP, 0.0958; with RRIRHRPPRLPRPRPRPKAEPRP, 0.0672.
To RRIRNRPPRLPRPRPRPSAFPRP belongs -0.249.
Regarding RRIRQRPPRLPRPRPRPMATPRP, the “shrunken log2 fold change” value was 0.0329.
To RRIRTRPPRLPRPRPRPVNNPRP belongs -0.0819; to RRIRCRPPRLPRPRPRPQHVPRP, -0.199.
Take RRIRFRPPRLPRPRPRPVFGPRP: the “shrunken log2 fold change” value is -0.17.
With RRIRIRPPRLPRPRPRPVTHPRP the figure was -0.256; with RRIRARPPRLPRPRPRPACVPRP, 0.707.
As for RRIRGRPPRLPRPRPRPKWMPRP, the “shrunken log2 fold change” value amounted to 0.58.
With RRIRDRPPRLPRPRPRPKHLPRP, the “shrunken log2 fold change” value is -0.0209.

Source of the values: the supplement of paper PMC9112550, “Optimization of the antimicrobial peptide Bac7 by deep mutational scanning” (BMC Biology, 2022).
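Further: peptides expressed intracellularly from a pBAD plasmid library in pooled LB shake-flask culture, induced with 0.3% L-arabinose, DNA abundance read by NGS, three biological replicates, DESeq2 with apeglm shrinkage.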
